Measured values taken from patent publication US20260224721A1, “ANTI-CD70 ANTIBODY-DRUG CONJUGATES” (Ambrx, Inc., priority 2023, published 2026).
Square brackets hold non-standard residues; d marks the D form. Peptide text beside a SMILES is read from it. * marks the point of attachment. Dolaproine = CO[C@@H]([C@@H]1CCCN1)[C@@H](C)C(=O)O; Dil = CC[C@H](C)[C@H](NC)[C@@H](CC(=O)O)OC; X1 = CC(C)[C@@H](C(=O)*)N(C)CCOCCOCCOCCON; X2 = C[C@@H](N*)[C@@H](O)c1ccccc1; NMeV = CN[C@H](C(=O)O)C(C)C

Legend:
[1] = biological target: T1, MDR/P-gp (Homo sapiens, UniProt P08183); experiment: MDR pump substrate assessment; type: in vitro ADME; conditions: data not shown
[2] = biological target: T2, BCRP (Homo sapiens, UniProt Q9UNQ0); experiment: BCRP substrate assessment; type: in vitro ADME; conditions: data not shown
T2 sequence (Q9UNQ0 1-655): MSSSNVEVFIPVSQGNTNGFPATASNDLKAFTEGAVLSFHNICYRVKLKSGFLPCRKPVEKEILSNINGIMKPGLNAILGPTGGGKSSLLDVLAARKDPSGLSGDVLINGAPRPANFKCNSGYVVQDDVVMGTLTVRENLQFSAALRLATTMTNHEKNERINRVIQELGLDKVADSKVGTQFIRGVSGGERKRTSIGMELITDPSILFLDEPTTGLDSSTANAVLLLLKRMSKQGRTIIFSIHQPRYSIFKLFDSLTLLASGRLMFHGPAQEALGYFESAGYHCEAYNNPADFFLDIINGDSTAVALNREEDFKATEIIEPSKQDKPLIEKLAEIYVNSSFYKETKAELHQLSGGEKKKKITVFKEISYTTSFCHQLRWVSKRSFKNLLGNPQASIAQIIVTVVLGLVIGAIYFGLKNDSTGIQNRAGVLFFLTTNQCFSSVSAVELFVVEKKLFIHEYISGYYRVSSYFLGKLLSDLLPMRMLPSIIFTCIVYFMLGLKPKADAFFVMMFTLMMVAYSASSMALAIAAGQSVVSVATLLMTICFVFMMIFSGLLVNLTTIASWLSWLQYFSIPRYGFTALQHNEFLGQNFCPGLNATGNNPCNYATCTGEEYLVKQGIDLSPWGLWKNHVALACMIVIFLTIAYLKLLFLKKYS

[3] = biological target: T1, MDR/P-gp; conditions: cited from earlier work
[4] = tested on: 786-OS3 renal carcinoma cells; experiment: 786-OS3/PBMC renal cell carcinoma xenograft model, ARX305 and pembrolizumab; type: in vivo, NCG mice; conditions: study day 36, 5.0 mg/kg dose of pembrolizumab alone, IP QW × 4
Protocol: ARX305 in combination with a checkpoint inhibitor, such as a PD-1/PD-L1 inhibitor, were tested in a renal cell carcinoma (RCC) model. For RCC, ARX305 in combination of pembrolizumab (PD-1 inhibitor) were evaluated in a cell line-derived xenograft tumor model: 786-OS3.
Female NCG mice were housed five (5) per cage in a pathogen-free, limited access room. Food and water were provided ad libitum. Mice were subcutaneously inoculated in the right flank with 5×10^6 786-OS3 renal carcinoma cells mixed with Matrigel. Tumor volumes were measured twice weekly. When tumors reached from about 175 mm^3 to about 200 mm^3 in size, mice were randomized into five (5) groups of 10 mice with approximately equal average tumor volumes. Cryopreserved peripheral blood mononuclear cells (PBMCs) from a single healthy donor were thawed and cultured in Roswell Park Memorial Institut (RPMI) medium+10% fetal bovine serum at 37° C. for 24 hours. PBMCs were harvested and intraperitoneally injected into tumor-bearing mice (10^7/mouse). After 24 hours, mice were injected with vehicle, pembrolizumab (5 mg/kg), ARX305 (0.3 mg/kg), or pembrolizumab (5 mg/kg)+ARX305 (0.3 mg/kg). Dosing was repeated for pembrolizumab weekly for a total of 4 doses and ARX305 every other week for a total of 2 doses. […] Tumor volumes were continually measured twice weekly and FIG. 15 show mean tumor volumes +/−SEM for each group.

[5] = biological target: T3, mouse CD70 protein (mouse, UniProt O55237 45-195, limits assumed); experiment: SPR (Biacore), ADC captured by anti-human IgG (Fc) on CM5 chip, CD70 as analyte
T3 construct: SPR analyte; construct not described; also called rodent CD70
T3 sequence (looked up): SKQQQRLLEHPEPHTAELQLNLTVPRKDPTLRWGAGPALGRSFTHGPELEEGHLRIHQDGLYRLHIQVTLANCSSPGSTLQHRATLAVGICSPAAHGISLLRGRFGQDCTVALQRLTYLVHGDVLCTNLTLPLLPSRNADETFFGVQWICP
Protocol: (§1) Surface plasmon resonance assays were developed in which anti-human IgG (Fc) was diluted to 25 μg/mL in immobilization buffer ([…] Sodium Acetate, pH 5.0) and injected to an activated CM5 sensor chip for 360 seconds at a flow rate of 10 μL/minute. […] After each cycle of interaction analysis, the sensor chip surface was regenerated with 3M magnesium chloride at a flow rate of 20 uL/minute for 30 seconds. Affinity analysis was performed using Biacore Insight Evaluation software, reference channel was used for background subtraction, and a 1:1 binding method was used for curve fitting.

[6] = biological target: T4, cynomolgus CD70 protein (cynomolgus, UniProt A0A2K5WTU9 39-190); experiment: SPR (Biacore), ADC captured by anti-human IgG (Fc) on CM5 chip, CD70 as analyte, 1:1 fit
T4 construct: SPR analyte; construct not described
T4 sequence: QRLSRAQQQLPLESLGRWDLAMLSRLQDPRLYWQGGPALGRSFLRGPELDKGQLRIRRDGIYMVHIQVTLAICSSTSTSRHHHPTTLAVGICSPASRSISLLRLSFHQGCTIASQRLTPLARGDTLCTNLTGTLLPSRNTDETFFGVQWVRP
Protocol: as §1

[7] = biological target: T5, CD70 on the surface of human tumor cell lines (human, UniProt P32970 1-193); experiment: cell-based or functional assay
T5 sequence (looked up): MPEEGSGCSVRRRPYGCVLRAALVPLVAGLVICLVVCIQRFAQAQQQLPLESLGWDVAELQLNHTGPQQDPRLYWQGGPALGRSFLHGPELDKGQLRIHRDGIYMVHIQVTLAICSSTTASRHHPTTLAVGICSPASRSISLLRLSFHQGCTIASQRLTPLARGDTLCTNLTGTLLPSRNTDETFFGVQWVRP

[8] = biological target: T6, cynomolgus CD70 protein (cynomolgus, UniProt A0A2K5WTU9 39-190); experiment: SPR
T6 chain: T4 sequence

[9] = biological target: T7, human CD70 protein (human, UniProt P32970 39-193); experiment: SPR
T7 chain: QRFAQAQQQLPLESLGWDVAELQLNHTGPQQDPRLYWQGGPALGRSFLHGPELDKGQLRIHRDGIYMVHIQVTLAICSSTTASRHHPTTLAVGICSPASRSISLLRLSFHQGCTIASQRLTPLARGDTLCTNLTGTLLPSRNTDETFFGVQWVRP

T1 sequence (P08183 whole entry): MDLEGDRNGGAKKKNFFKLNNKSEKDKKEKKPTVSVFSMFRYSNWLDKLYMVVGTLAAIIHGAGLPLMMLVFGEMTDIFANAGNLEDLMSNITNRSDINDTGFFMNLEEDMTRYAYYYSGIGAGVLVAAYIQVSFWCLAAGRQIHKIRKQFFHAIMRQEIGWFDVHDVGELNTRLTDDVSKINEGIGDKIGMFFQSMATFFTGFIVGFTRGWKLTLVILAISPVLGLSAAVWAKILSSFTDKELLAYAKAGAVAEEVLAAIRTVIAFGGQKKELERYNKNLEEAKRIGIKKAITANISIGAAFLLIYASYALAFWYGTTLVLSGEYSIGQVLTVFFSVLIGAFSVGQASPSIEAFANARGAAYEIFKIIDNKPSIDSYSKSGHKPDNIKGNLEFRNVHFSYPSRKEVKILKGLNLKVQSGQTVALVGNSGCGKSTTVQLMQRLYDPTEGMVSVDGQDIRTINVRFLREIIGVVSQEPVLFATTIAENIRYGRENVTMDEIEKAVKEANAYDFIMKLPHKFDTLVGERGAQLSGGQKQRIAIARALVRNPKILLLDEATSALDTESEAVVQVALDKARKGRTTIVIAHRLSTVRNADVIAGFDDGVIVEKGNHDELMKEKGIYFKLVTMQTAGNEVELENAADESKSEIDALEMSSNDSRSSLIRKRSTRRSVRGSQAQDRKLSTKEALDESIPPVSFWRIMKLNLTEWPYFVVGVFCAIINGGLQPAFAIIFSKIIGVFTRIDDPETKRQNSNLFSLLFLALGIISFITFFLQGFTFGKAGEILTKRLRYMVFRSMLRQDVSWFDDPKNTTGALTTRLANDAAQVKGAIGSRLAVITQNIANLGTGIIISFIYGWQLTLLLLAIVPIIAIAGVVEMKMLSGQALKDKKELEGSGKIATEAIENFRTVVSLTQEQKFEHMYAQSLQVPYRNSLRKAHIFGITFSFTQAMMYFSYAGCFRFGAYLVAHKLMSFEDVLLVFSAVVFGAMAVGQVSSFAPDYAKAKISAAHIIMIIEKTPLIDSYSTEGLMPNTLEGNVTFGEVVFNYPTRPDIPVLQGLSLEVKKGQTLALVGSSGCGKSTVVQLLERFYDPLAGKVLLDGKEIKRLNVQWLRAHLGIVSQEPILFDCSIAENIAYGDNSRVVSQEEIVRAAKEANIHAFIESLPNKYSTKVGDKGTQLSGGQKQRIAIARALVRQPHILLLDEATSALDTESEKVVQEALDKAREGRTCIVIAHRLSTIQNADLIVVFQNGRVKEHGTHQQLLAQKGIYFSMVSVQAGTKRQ

CC[C@H](C)[C@@H]([C@@H](CC(=O)N1CCC[C@H]1[C@H](OC)[C@@H](C)C(=O)N[C@@H](Cc1ccccc1)C(=O)O)OC)N(C)C(=O)[C@@H](NC(=O)[C@H](C(C)C)N(C)CCOCCOCCOCCON)C(C)C [AS269, ((2R,3R)-3-((S)-1-((3R,4S,5S)-4-((S)-2-((S)-14-(aminooxy)-2-isopropyl-3-methyl-6,9,12-trioxa-3-azatetradecanamido)-N,3-dimethylbutanamido)-3-methoxy-5-methylheptanoyl)pyrrolidin-2-yl)-3-methoxy-2-methylpropanoyl)-L-phenylalanine] (X1-V[Dil][Dolaproine]F-OH)
substrate for MDR/P-gp [1]: not a substrate | substrate for BCRP [2]: not a substrate

CC[C@H](C)[C@@H]([C@@H](CC(=O)N1CCC[C@H]1[C@H](OC)[C@@H](C)C(=O)N[C@H](C)[C@@H](O)c1ccccc1)OC)N(C)C(=O)[C@@H](NC(=O)[C@@H](NC)C(C)C)C(C)C [MMAE, Monomethyl auristatin E] (H-[NMeV]V[Dil][Dolaproine]-X2)
substrate for MDR pumps [3]: known substrate

pembrolizumab: PD-1 inhibitor [reference compound]
tumor growth inhibition (TGI) [4]: 6%

B1: anti-CD70-AS269 ADC (antibody, human IgG1, kappa, V domains shown)
VH: EVQLVQSGAEVKKPGATVKISCKVSGYTFTDYYMNWVQQAPGKGLEWMGIINPYNGGTHYNQKFKGRVTITADTSTDTAYMELSSLRSEDTAVYYCATSGYDLYFDYWGQGTLVTVSS
VL: EIVMTQSPATLSVSPGERATLSCKASQNVGTAVAWYQQKPGQAPRLLIYSAFNRYNGIPARFSGSGPGTDFTLTISSLQSEDFAVYYCQQYSTYPLTFGGGTKVEIKR
modifications: para-acetyl-L-phenylalanine (pAF) at position 114 (Kabat numbering; the X of SEQ ID NO: 3), carrying drug-linker AS269 via an oxime bond
notes: Antibody-drug conjugate: humanized IgG1 mAb with one AS269 drug-linker per heavy chain, DAR about 2; also called ARX305; aCD70-AS269
binding result [5]: no binding | fold difference of affinity between human and cynomolgus CD70 [6]: ≤ 3 fold | Cytotoxic Potency (IC50, nM), 786-O cells (CD70 surface expression 133,000) [7]: 0.167 nM | Cytotoxic Potency (IC50, nM), C666-1 cells (CD70 surface expression 9,200) [7]: > 10 nM | Cytotoxic Potency (IC50, nM), Caki-1 cells (CD70 surface expression 107,000) [7]: 0.125 nM | Cytotoxic Potency (IC50, nM), Hs 611.T cells (CD70 surface expression 6,600) [7]: > 10 nM | Cytotoxic Potency (IC50, nM), Hs766T cells (CD70 surface expression 9,500) [7]: > 10 nM | Cytotoxic Potency (IC50, nM), KMS11 cells (CD70 surface expression 9,400) [7]: > 10 nM | Cytotoxic Potency (IC50, nM), NCI-H40 cells (CD70 surface expression 14,900) [7]: 0.18 nM | Cytotoxic Potency (IC50, nM), NCI-H929 cells (CD70 surface expression 0) [7]: > 10 nM | Cytotoxic Potency (IC50, nM), REC-1 cells (CD70 surface expression 17,300) [7]: 0.18 nM | Cytotoxic Potency (IC50, nM), Raji cells (CD70 surface expression 17,700) [7]: > 10 nM | Cytotoxic Potency (IC50, nM), U251MG cells (CD70 surface expression 65,800) [7]: 0.04 nM | Cytotoxic Potency (IC50, nM), U266 cells (CD70 surface expression 65,000) [7]: 0.025 nM | Kd [8]: 684 pM | Kd [9]: 228 pM
